Results reported in article PMC6303327, “A structural and dynamic model for the assembly of Replication Protein A on single-stranded DNA”.

Key:
[1] = molecular target: T1, ScRPA (Rfa1-Rfa2-Rfa3 heterotrimer, wild type) (Saccharomyces cerevisiae, UniProt P22336;P26754;P26755 1-621;1-273;1-122); assay: MST; apparent EC50; Hill slope 0.9 ± 0.1; EMSA: 20 mM Tris pH 7.5, 150 mM NaCl, 10 mM MgCl2, 0.01% Tween-20, room temperature, 30 min; MST: MST-binding buffer (composition not in material), room temperature, 20 min; FRET: reaction buffer not given, 10 nM DNA; conditions: protein: recombinant; tags: TEV-cleavable His6 on Rfa1; copies: 1;1;1; label: 5' Cy5
T1 sequence (P22336 whole entry, chain 1 of 3): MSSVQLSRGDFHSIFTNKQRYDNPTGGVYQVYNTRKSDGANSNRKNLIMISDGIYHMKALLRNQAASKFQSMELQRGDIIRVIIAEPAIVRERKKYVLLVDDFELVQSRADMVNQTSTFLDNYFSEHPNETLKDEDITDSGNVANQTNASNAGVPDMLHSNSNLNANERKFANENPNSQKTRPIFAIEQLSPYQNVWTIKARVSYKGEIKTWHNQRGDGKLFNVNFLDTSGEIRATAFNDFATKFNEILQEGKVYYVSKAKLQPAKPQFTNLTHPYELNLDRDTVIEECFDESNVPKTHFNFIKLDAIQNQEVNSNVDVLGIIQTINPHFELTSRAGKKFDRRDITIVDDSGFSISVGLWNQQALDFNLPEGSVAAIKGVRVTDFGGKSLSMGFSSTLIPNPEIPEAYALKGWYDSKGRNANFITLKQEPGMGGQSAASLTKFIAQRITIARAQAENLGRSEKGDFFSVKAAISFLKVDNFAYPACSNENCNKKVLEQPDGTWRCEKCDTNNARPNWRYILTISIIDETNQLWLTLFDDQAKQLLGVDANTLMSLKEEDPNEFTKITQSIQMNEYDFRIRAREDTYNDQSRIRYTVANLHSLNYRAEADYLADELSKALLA
T1 sequence (P26754 whole entry, chain 2 of 3): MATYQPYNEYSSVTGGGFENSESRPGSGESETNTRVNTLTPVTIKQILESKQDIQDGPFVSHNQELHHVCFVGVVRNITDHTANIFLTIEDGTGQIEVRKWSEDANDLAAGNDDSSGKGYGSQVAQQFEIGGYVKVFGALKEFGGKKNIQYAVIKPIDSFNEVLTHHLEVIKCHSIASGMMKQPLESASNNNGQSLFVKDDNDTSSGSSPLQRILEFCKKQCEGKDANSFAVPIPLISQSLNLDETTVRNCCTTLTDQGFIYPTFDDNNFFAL
T1 sequence (P26755 whole entry, chain 3 of 3): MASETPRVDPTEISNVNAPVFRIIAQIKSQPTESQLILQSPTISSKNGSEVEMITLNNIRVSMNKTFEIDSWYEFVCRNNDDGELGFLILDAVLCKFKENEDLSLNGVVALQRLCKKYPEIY

[2] = molecular target: DBD-A S178D (Saccharomyces cerevisiae, UniProt P22336 178-294, S178D); assay: MST; S178D did not affect dT7 binding; EMSA: 20 mM Tris pH 7.5, 150 mM NaCl, 10 mM MgCl2, 0.01% Tween-20, room temperature, 30 min; MST: MST-binding buffer (composition not in material), room temperature, 20 min; FRET: reaction buffer not given, 10 nM DNA; conditions: protein: recombinant; tags: GST removed by 3C cleavage; label: Cy5 (5')
DBD-A S178D, sequence (P22336 178-294 S178D): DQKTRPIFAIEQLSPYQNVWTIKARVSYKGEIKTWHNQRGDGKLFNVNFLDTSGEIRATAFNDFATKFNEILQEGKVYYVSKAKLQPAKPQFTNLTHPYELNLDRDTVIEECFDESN

[3] = molecular target: DBD-A (Rfa1) (Saccharomyces cerevisiae, UniProt P22336 178-294); assay: MST; EC50; EMSA: 20 mM Tris pH 7.5, 150 mM NaCl, 10 mM MgCl2, 0.01% Tween-20, room temperature, 30 min; MST: MST-binding buffer (composition not in material), room temperature, 20 min; FRET: reaction buffer not given, 10 nM DNA; conditions: protein: recombinant; tags: GST removed by 3C cleavage; label: Cy5 (5')
DBD-A (Rfa1), sequence (P22336 178-294): as the sequence (P22336 178-294 S178D) above, with D1S counted along it

[4] = molecular target: T1, ScRPA (Rfa1-Rfa2-Rfa3 heterotrimer, …); assay: FRET titration; 10 nM DNA; Hill fit; panel in Supplementary Fig. 14 gives 38.7 ± 0.8; EMSA: 20 mM Tris pH 7.5, 150 mM NaCl, 10 mM MgCl2, 0.01% Tween-20, room temperature, 30 min; MST: MST-binding buffer (composition not in material), room temperature, 20 min; FRET: reaction buffer not given, 10 nM DNA; conditions: protein: recombinant; tags: TEV-cleavable His6 on Rfa1; copies: 1;1;1; label: 5' Cy5, Cy3 after nt 29
[5] = molecular target: T1, ScRPA (Rfa1-Rfa2-Rfa3 heterotrimer, …); assay: FRET titration; stoichiometric, X0 = 8.7 ± 0.3 nM at 10 nM DNA (1:1); EMSA: 20 mM Tris pH 7.5, 150 mM NaCl, 10 mM MgCl2, 0.01% Tween-20, room temperature, 30 min; MST: MST-binding buffer (composition not in material), room temperature, 20 min; FRET: reaction buffer not given, 10 nM DNA; conditions: protein: recombinant; tags: TEV-cleavable His6 on Rfa1; copies: 1;1;1; label: 5' Cy5, 3' Cy3

B1: dT100 (Cy5) (ssDNA)
DNA: TTTTTTTTTTTTTTTTTTTTTTTTTTTTTTTTTTTTTTTTTTTTTTTTTTTTTTTTTTTTTTTTTTTTTTTTTTTTTTTTTTTTTTTTTTTTTTTTTTTT
With B1 the “apparent K (half saturation)” value [1] was roughly 20 nM.

B2: dT7 (Cy5) (ssDNA)
DNA: TTTTTTT
B2 was tested, and the binding result [2] was “binds” and the “apparent K (half saturation)” value [3] was 309 ± 18 nM.

B3: dT90(1-30) (ssDNA)
DNA: TTTTTTTTTTTTTTTTTTTTTTTTTTTTTTTTTTTTTTTTTTTTTTTTTTTTTTTTTTTTTTTTTTTTTTTTTTTTTTTTTTTTTTTTTT
modifications: internal Cy3 in backbone
B3 showed a Kd [4] of 39.3 ± 0.9 nM.

B4: dT30 (FRET) (ssDNA)
DNA: TTTTTTTTTTTTTTTTTTTTTTTTTTTTTT
B4: binds [5].
